The results in this text go back to patent US20250288697A1.

Where two headings read alike, the source gives them in different places.

For assay [1], the target named is recombinant mouse TNFα (mouse) (UniProt P06804).
For assay [2] the target is unchanged. The source holds these as a separate data set.

UniProt P06804, sequence (P06804 80-235 limits assumed): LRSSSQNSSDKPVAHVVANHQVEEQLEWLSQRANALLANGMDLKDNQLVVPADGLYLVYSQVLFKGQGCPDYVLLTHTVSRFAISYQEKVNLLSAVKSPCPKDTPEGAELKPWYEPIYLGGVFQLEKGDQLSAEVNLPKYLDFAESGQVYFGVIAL

As for “TNFR2-Fc (etanercept), vectorized (Fc fusion)”, the figures for the IC50 (read off the curve); HEK-Blue TNFα reporter (SEAP), % TNFα activity in assay [1] and in assay [2] were 0.9 µg/mL and 0.5 µg/mL, respectively.
